# Measurements: patent US20240218024A1, “METHODS AND COMPOSITIONS FOR TREATMENT OF VIRAL INFECTION” (TECHNION RESEARCH & DEVELOPMENT FOUNDATION LIMITED, priority 2021, published 2024)
# B1: PCP-3×: class I slncRNA with three PCP binding hairpins (SEQ ID NO: 23) (nucleic acid)
# chain: GAGAAACGTTTCGACATTATATGGAATGCGAAACACGGAGGATGCGGGAAACATGAAGATCACTCATGTTCGCTTAACCATGGATAGGGATCACCCATGTTGCGGTGGTGCGTCAACCAGAGATTTCATATGGGAAACTCTGGGACACGCTGTATTTATACATGAGGATCACCATGTGTGCTTAAATATGGGTAATTCCAGTTTATATGGAAACGGA
# B2: PCP-4×/MCP-4×: class II slncRNA with four PCP binding sites spaced by non-PCP hairpins (SEQ ID NO: 26) (nucleic acid)
# chain: GAGAAACGTTTCGACATTATATGGAATGCGAAAGTGGAACGTAATGGACATGAAGACGATTACGCTTCACACGGAGGATGCGGGAAACATGAAGATCACCCATGTTCGCTTAACCATGGATAGGGATCACCCATGTTGCGGTGGTGCGTCAACCAGAGATTTCATATGGGAAACTCTGGGACACGCTGTATTTATACATGAGGATCACCATGTGTGCTTAAATATGGGTAAGTTGACCATTAGGCAACTGTAAGATGCTCCGGTTAATTCCAGTTTATATGGAAACGGAATTGATGTACCGTTGAGCAAGAACACGATTACGGTTCTTCGATTAGATATGGTTTAAACGACAATATATGGATTGCGTTTTGGGGCACGCCGTCTGGAGAAGACCATTAGGCTTCTTTACTGCGATGGGTGGGAGGTAGAGGGATTCTCGCGAGAAGAA
# B3: PCP-8×: class I slncRNA with eight PCP binding hairpins (SEQ ID NO: 27) (nucleic acid)
# chain: GAGAAACGTTTCGACATTATATGGAATGCGAAACACGGAGGATGCGGGAAACATGAAGATCACCCATGTTCGCTTAACCATGGATAGGGATCACCCATGTTGCGGTGGTGCGTCAACCAGAGATTTCATATGGGAAACTCTGGGACACGCTGTATTTATACATGAGGATCACCATGTGTGCTTAAATATGGGTAATTCCAGTTTATATGGAAACGGAATTAGGCTAGAGCATGGCGGTATTGAGTTCGGGTTTGAAACGACAATATATGGATTGCGTTTTGGGGCACGCCGTCTGGAAAGGAGATTATATGAAATCCCTTTGCGCGCAACCGGGTAGATACGAGTCAATATGGTGACCGTACCTTGGTGGGGAAGCGATAAGCACATTATAAGGAATGGCTTAGTGCTAGACCCTGGTCTTTTCGAGAAAATATGGTTTCCGAAAATGGGTGGGAGGTAGAGGGATTCTCGCGAGAAGAA
# B4: PCP-4×: class I slncRNA with four PCP binding hairpins (SEQ ID NO: 24) (nucleic acid)
# chain: GAGAAACGTTTCGACATTATATGGAATGCGAAACACGGAGGATGCGGGAAACATGAAGATCACTCATGTTCGCTTAACCATGGATAGGGATCACCCATGTTGCGGTGGTGCGTCAACCAGAGATTTCATATGGGAAACTCTGGGACACGCTGTATTTATACATGAGGATCACCATGTGTGCTTAAATATGGGTAATTCCAGTTTATATGGAAACGGAATAAGATTAGATATGGTTTAAACGACAATATATGGATTGCGTTTTGGGGCACGCCGTCTGGTTACTGCGATGGGTGGGAGGTAGAGGGATTCTAAGCTTAAGA
# B5: PCP-3×/MCP-3×: class II slncRNA with three PCP binding sites spaced by non-PCP hairpins (SEQ ID NO: 25) (nucleic acid)
# chain: GAGAAACGTTTCGACATTATATGGAATGCGAAAGTGGAACGTAATGGACATGAAGACGATTACGCTTCACACGGAGGATGCGGGAAACATGAAGATCACCCACGCTTAACCATGGATAGGGATCACCCATGTTGCGGTGGTGCGTCAACCAGAGATTTCATATGGGAAACTCTGGGACACGCTGTATTTATACATGAGGATCACCATGTGTGCTTAAATATGGGTAAGTTGACCATTAGGCAACTGTAAGATGCTCCGGTTAATTCCAGTTTATATGGAAACGGAATTGATGTACCGTTGAGCAAGAACACGATTACGGTTCTTCGATTAGATATGGGGTGGGAGGTAGAGGGATTCTCGCGAGAAGA
# B6: PCP-14×/MCP-15×: class II slncRNA with fourteen PCP binding sites spaced by hairpins that do not bind PCP (SEQ ID NO: 28) (nucleic acid)
# chain: GAGAAACGTTTCGACATTATATGGAATGCGAAAGTGGAACGTAATGGACATGAAGACGATTACGCTTCACACGGAGGATGCGGGAAACATGAAGATCACCCATGTTCGCTTAACCATGGATAGGGATCACCCATGTTGCGGTGGTGCGTCAACCAGAGATTTCATATGGGAAACTCTGGGACACGCTGTATTTATACATGAGGATCACCATGTGTGCTTAAATATGGGTAAGTTGACCATTAGGCAACTGTAAGATGCTCCGGTTAATTCCAGTTTATATGGAAACGGAATTGATGTACCGTTGAGCAAGAACACGATTACGGTTCTTCGATTAGATATGGTTTAAACGACAATATATGGATTGCGTTTTGGGGCACGCCGTCTGGAGAAGACCATTAGGCTTCTTTACTGCGACCGCAATAAAAGGAGATTATATGAAATCCCTTTGCGCGCAACCGGGTAGAAGATCACCATTAGGGATCTGTAACTCACGGCGCTATTACGAGTCAATATGGTGACCGTAAAGCTAGGGCATGTGCCAGAAGAGCATTAGCCTTCTCCTTGGTGGGGAAGCGATAAGCACATTATAAGGAATGGCTTAAAGTGGTGCGGCGGGGGACTTGACCATTAGGCAAGTGTGCTAGACCCTGGTCTTTTCGAGAAAATATGGTTTCCGAAAGAACTATACGAAGTGACATGCGAGGATTACCCGCATATGGTGCAAATGGGAGAATTGGAGTAAATATGGTTACCCAATAGGCTAGAGCATGACGGCAGTGAGAATTATCCACTGGTTAGCGGGTTACCGAGATTGCACATTATATGGAATGGCAATTGATTCATGCCGGTCGTTTGTGAGGAGTACCCACAAAATGGGAGGGTGCTATATAACCAGGTTATATGCAACCGGTTAGGCCGTTGTGTTAGTTTAGTTCAGCATTAGCGAACTGTGCAAGACCCGGTGGCTAAGGAGTTTATATGGAAACCCTTAGCCCTCGAGCATGCTAACATGAGGATTACCCATGTGATGGGTTTGAAACGTGCAATTATTTGATATGGCAAAAATTGGGTAGGGCATGGCTGCAGCGTGAGAATTATCCACGCTAGGCTAGAGCATGGCGGTATTGAGTTCGGGTTTGAGATGACCATTAGGCATCTGTGCTAGAGCATGCGAAAACGACATAATATGGTATGCGTTTTGGGGTGCTAGTATACCACATGATGAGCACACATGTATGGGTGGGAGGTAGAGGGATTCTCGCGAGAAGA
# Experiments:
# [1] = In vitro slncRNA and slncRNA-protein granule formation (fluorescence microscopy); format: physicochemical; conditions: for Poisson parameter λ best fit of condensate fluorescence intensity distribution: slncRNA-only condensates
# [2] = Temporal tracking of individual SRNP granules in vitro (burst analysis); format: physicochemical; conditions: SRNP granules with tdPCP-mCherry, 60 minutes tracking
# Protocol: To test whether the synthetic granules display this characteristic, we tracked the fluorescence intensity of each granule in a given field-of-view for 60 minutes. The brightness of each granule was analyzed at every time point using a customized analysis algorithm (see Supplementary Methods). The resulting signals are either decreasing or increasing in overall intensity, and dispersed within them are sharp variations in brightness, that are also either increasing or decreasing. Next, we employed a statistical threshold which flagged these signal variation events, or “signal bursts”, whose amplitude was determined to not be part of the underlying signal distribution (p-value<1e-3) (See Supplementary Methods for definitions of bursts, algorithm details, and relevant numerical controls). The events were classified as either increasing bursts (green), decreasing bursts (red), or non-classified segments (blue), which are segments where molecular movement cannot be discerned from the noise (FIG. 8A). For each detected burst, its amplitude (A intensity) and duration (A time) were measured, in addition to measuring the time between bursts and the order of their appearance. In FIG. 8B the distributions of amplitudes for all three event types were plotted, obtained from ˜156 signal traces, each gathered from a different granule composed of PCP-14×/MCP-15× and tdPCP-mCherry. We observe a bias towards negative burst or shedding events. Assuming an interpretation that fluorescent burst events correspond to insertion and shedding events of slncRNA-CP complexes into or out of the synthetic granules, the amplitude bias towards negative events is consistent with RNA degradation and lack of transcription within the in vitro suspension, leading to a net shedding of slncRNA molecules out of the granules over time.
# The tracking data, (x,y,t coordinates of the bright spots centroids), together with the raw microscopy images were fed to a custom built Matlab (The Mathworks, Natick, MA) script designed to normalize the relevant spot data. Normalization was carried out as follows: for each bright spot, a 14-pixel wide sub-frame was extracted from the field of view, with the spot at its center. Each pixel in the sub-frame was classified to one of three categories according to its intensity value. […]
# We assume the total fluorescence is comprised of three distinct signal processes: RNP granule fluorescence, background fluorescence and noise. We further assume that background fluorescence is slowly changing, as compared with granule fluorescence which depends on the dynamic and frequent insertion and shedding events occurring in the droplet. […] To identify such shifts in the base-line fluorescence intensity, we use a moving-average filter of 13 points (i.e., 2 minutes) to smooth the data. […]
# [3] = SRNP granules with tdPCP-mCherry
molecule,measurement,setting,value
B1,"formation of fluorescent condensates, slncRNA only","[1]; 8.5 nM slncRNA, granule forming buffer, 1 hour room temperature",no such structures were detected
same,median mCherry fluorescence of SRNP granules relative to PCP-14×/MCP-15× granules,[1]; [3],half as bright
same,granule formation / colocalization with tdPCP-mCherry,[1]; slncRNA plus 25 nM tdPCP-mCherry,witnessed in the presence of the protein
B2,"ratio between mean granule fluorescence and mean burst amplitude, red channel (protein)",[2],approximately equal to that of the green channel
B3,"ratio between mean granule fluorescence and mean burst amplitude, red channel (protein)",[2],~2
B4,Poisson parameter λ best fit of condensate fluorescence intensity distribution,[1],0
B5,"ratio between mean granule fluorescence and mean burst amplitude, red channel (protein)",[2],approximately equal to that of the green channel
B6,"ratio between mean granule fluorescence and mean burst amplitude, red channel (protein)",[2],approximately equal to that of the green channel
same,"median mCherry fluorescence of SRNP granules, brighter than PCP-4×/MCP-4× granules",[1]; [3],~3 times
same,"median mCherry fluorescence of SRNP granules, brighter than PCP-8× granules",[1]; [3],> 2 fold
same,slncRNA and protein concentrations at which puncta like structures were detected,"[1]; SRNP granules with tdPCP-mCherry, both components varied over two orders of magnitude",≥ 100 ng/µL
same,Poisson parameter λ best fit of condensate fluorescence intensity distribution,[1],3-5
